Experimental data published in the supplement of paper PMC10567573.

B1: C9orf9 (parent)
chain: TKHKCRQLTKASLKPRGCSKPPWR

Variants of: B1
Assay: protein stability index of a GFP-peptide fusion (GPS, HEK-293T) (PSI 1-6); higher = more stable
Conditions: c terminus: a fixed tail appended
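Note: lentivirally expressed fusions sorted by FACS into six bins by GFP to DsRed ratio, PSI derived from sequencing read proportions per bin multiplied by bin number.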

Protein stability index of substitutions, site by site:
A11: K 2.85 | G 3.46 | P 3.89 | N 2.95 | F 1.67 | Y 2.48 | V 2.57 | M 1.94 | H 3.04 | Q 2.16 | W 2.27 | T 2.92 | S 2.78 | I 2.29 | L 2.59
S19: E 2.02 | I 2.08 | A 1.5 | L 3.11 | D 2.77 | G 2.21 | K 2.37 | W 2.14 | N 2.44 | R 3.63 | T 3.02 | F 2.33 | V 3.35 | Y 1.99 | P 1.92 | Q 2.44 | M 2.94 | C 2.36
P15: F 2.77 | N 2.86 | R 3.93 | C 2.5 | W 2.22 | S 3 | Y 1.68 | G 3.41 | D 3.17 | L 2.01 | K 3.52 | E 2.59 | I 2.66 | M 2.32 | H 4.16 | T 2.67
K20: M 1.76 | W 1.94 | R 3.14 | T 2.21 | G 2.64 | V 2.2 | I 2.37 | P 3.42 | S 2.9 | Q 2.45 | L 2.3 | A 2.41 | H 2.76 | D 1.92 | E 2.41 | C 2.23 | Y 3.56 | N 2.95 | F 2.32
P21: D 2.93 | Q 3.48 | F 2.79 | K 2.76 | L 3.59 | V 3.09 | M 2.64 | N 2.9 | S 2.4 | C 2.36 | Y 2.13 | W 2.28 | H 3.41 | T 2.56 | G 2.81 | I 3.18 | E 2.79
P22: G 3.09 | F 1.73 | E 2.98 | T 3.03 | C 1.83 | R 2.51 | A 2.97 | D 2.38 | K 3.03 | Q 2.99 | I 2.02 | M 2.76 | Y 2.62 | N 2.32 | W 1.89 | H 2.98 | S 3.14
G17: D 2.79 | A 2.83 | P 2.08 | H 2.76 | F 2.23 | M 2.09 | C 1.83 | N 2.43 | S 2.82 | I 2.86 | T 2.78 | W 1.92 | R 3.03 | Y 2.52 | L 2.14 | Q 3.6 | K 3.32 | E 3.49
C18: D 3.06 | L 3.6 | W 2.06 | M 2.58 | K 3.42 | I 2.2 | S 1.35 | N 3.22 | E 3.01 | R 3.03 | G 3.76 | A 2.71 | Q 3.32 | V 2.1 | P 3.32 | T 3.11 | F 2.69 | Y 2.18 | H 3.02
R24: T 2.73 | S 2.18 | E 3.22 | A 2.95 | F 2.14 | G 2.12 | Y 2.59 | L 1.72 | P 2.53 | N 2.79 | K 3.63 | M 2.57 | H 2.82 | V 2.14 | I 1.43 | Q 2.2 | W 2.51 | D 3.17 | C 1.99
K14: F 2.78 | R 2.52 | L 2.75 | Y 1.54 | S 2.86 | I 2.2 | M 1.73 | A 2.24 | V 2.79
